Laboratory results published in the supplement of paper PMC10567573.

B1: CLCN6 (parent)
chain: FQSISLRKIQFNFPYFRSDRDKRD
B2: VTI1B (parent)
chain: ANETLAEMEEELRYAPLSFRNPMM

Variants of: B1
Experiment: protein stability index of a GFP-peptide fusion (GPS, HEK-293T) (PSI 1-6); higher = more stable
Settings: c terminus: a fixed tail appended
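Also: lentivirally expressed fusions sorted by FACS into six bins by GFP to DsRed ratio, PSI derived from sequencing read proportions per bin multiplied by bin number.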

Protein stability index, by site and new letter:
S3: F 2.58; H 1.46; T 1.79; N 1.82; D 2.19; A 1.4; I 1.74; W 2.4; Q 1.66; G 1.89; L 1.08; R 1.38; P 2.29; E 2.73
L6: T 2.59; A 2.68; H 2.03; E 2.08; N 1.68; S 1.66; P 2.78; Q 2.13; C 1.53
Q2: S 1.96; A 2.17; N 1.62; G 1.54; D 2.46; E 2.69; F 1.53; I 1.06; V 5.36; T 2.73; C 1.9; R 1.91; K 2.5; Y 1.33; L 2.31
S5: T 1.42; A 1.82; K 1.7; H 1.74; N 1.82; D 1.96; Q 1.66; R 1.77; P 1.82; Y 1.98; E 2.21; G 1.02; I 1.4; F 2.62; M 1.46
I4: G 2.02; A 2.71; M 3; Y 1.42; N 1.98; V 1.98; E 1.91; T 2.21; L 2.44; D 2.05; S 1.74; Q 1.9; P 2.19
F1: P 2.29; D 3.34; S 3.4; E 4; C 2.4; R 2.07; T 2.77; Q 3.52; K 3.31; G 2.16; H 2.83; I 2.16; N 3.76; A 2.6
K8: E 2.63; I 2.78; C 1.75; L 2.64; H 2.92; M 2.08
R7: P 3.68; Q 1.62; I 1.77; M 1.21; K 1.59; T 1.78; N 1.97; V 2.97; W 1.77; H 2.02; C 1.81; E 2.56; L 1.37; S 2.4; A 2.38

Variants of: B2
Experiment: as above
Settings: c terminus: a fixed tail appended

Protein stability index of substitutions, site by site:
P22: V 2.81; F 2.67; W 3.03; D 4.75; A 3.56; E 3.97; M 3.63; I 3.03; K 3.43; C 3.25; R 3.32; S 3.48; H 4.1; Q 4.11; L 3.34; T 3.22; Y 3.38; N 3.58; G 3.58
M24: C 2.37; L 2.26; T 3.97; N 3.2; H 3.26; P 4.98; E 4.67; F 2.83; Q 2.46; R 3.21; D 3.92; V 3.04; K 3.91; A 3.78; W 3.97; G 3.72; Y 3.46; S 4.41
F19: P 4.87; T 4.44; Q 3.96; C 4.43; W 3.24; M 4.23; N 4.3; H 4.26; K 4.49; R 4.18; A 3.94; Y 2.35; E 4.67; D 4.85; V 3.28; G 4.5; I 3.73
L12: V 1.83; W 2.19; N 4.82; I 2.99; Y 4.21; Q 3.33; K 3.27; M 2.28; R 2.59; P 2.95; T 3.9; S 4.33
N21: T 3.17; S 3.41; P 3.58; D 3.12; G 3.72; C 2.71; E 3.95; R 3.25; Q 3.76; L 3.13; I 2.92; F 3.35; Y 3.39; W 2.21; M 3.37; A 3.81; K 3.61; H 3.42
A15: D 3.7; I 2.06; V 3.98; L 2.03; N 2.64; E 3.56; Y 2.52; R 1.76; H 1.9; T 2.06; F 1.39; G 3.44; Q 1.67; C 1.64; K 3.09; W 2.92; M 1.53; S 1.61
L17: P 3.78; R 2.93; D 4.33; M 3.13; T 4.06; F 1.52; Q 4.14; G 3.49; H 3.79; I 3.02; K 3.69; S 2.8; N 4.16; V 2.8; W 2; C 3.58; Y 3.41; E 4.46; A 3.66
R13: W 2.03; C 2.77; E 2.11; M 2.29; G 1.67; V 2.64; F 2.01; Q 2.37; Y 1.64; N 1.94; S 2.25; P 2.75; A 2.04; T 1.42; K 1.46; D 3.02; H 1.82; L 1.7
M23: T 3.35; L 3.56; Q 2.89; D 4.13; F 2.62; Y 2.79; V 1.83; N 3.67; G 3.46; W 2.13; C 3.62; K 3.07; E 2.79; R 2.19; S 3.62; I 2.04; H 3.24; A 2.71
Y14: H 1.7; W 1.32; D 3.36; K 1.93; G 2.11; Q 1.67; R 2.47; F 2.06; T 2.53; C 1.98; P 2.43; M 1.65; L 3.08; N 2.62; I 1.66; E 3.66; S 1.94; A 2.48; V 2.09
R20: A 2.25; K 3.36; G 2.65; D 2.48; V 1.71; T 2.42; S 2.03; F 2.63; I 1.9; Q 1.72; P 3.62; W 2.48; L 2.57; E 2.58; H 1.7; M 2.4; C 2.35; Y 2.12; N 1.51
P16: K 2.92; I 2.43; W 1.89; G 2; Y 2.36; M 1.77; Q 2.29; R 2.71; H 2.64; N 3.15; S 2.92; T 2.77; D 3.56; L 1.88; V 1.3; E 2.66; F 2.17; C 1.92; A 2.26
S18: V 3.14; E 3.79; W 3.98; Q 3.35; A 2.21; N 2.23; M 2.81; G 3.19; C 2.24; P 4.1; I 2.83; Y 3.25; D 2.98; F 2.64; H 2.94; T 1.79; K 3.81; L 3.19; R 3.8
